From patent US20260275288A1 (University of Texas, published 2026)

Tests used:
[1] = target: T1, non-transduced (NT) cord blood derived NK cells (endogenous wild type CD16; no CD3/TCR) (human, UniProt P08637 17-254); test: flow cytometry; 1 h, 37 °C, complete media, washed (FIGS. 38C-38D)
T1 construct: whole, on cells; A control cell, not a single protein; for the CD3 engagers the cells are the control without CD3; also called NT NK cells; NT NK

[2] = target: T2, TCR/FcR #2 CD16 extracellular domain (Fc binding domain) comprising polypeptide: WT high affinity CD16 … (human, UniProt P08637 17-254); test: as above
T2 construct: these cells also carry endogenous CD16; also called TCR/FcR #2 transduced NK cells; uTNK15 and TCR/FcR #2 transduced NK cells
T2 sequence (P08637 17-254 F176V limits assumed, form in doubt): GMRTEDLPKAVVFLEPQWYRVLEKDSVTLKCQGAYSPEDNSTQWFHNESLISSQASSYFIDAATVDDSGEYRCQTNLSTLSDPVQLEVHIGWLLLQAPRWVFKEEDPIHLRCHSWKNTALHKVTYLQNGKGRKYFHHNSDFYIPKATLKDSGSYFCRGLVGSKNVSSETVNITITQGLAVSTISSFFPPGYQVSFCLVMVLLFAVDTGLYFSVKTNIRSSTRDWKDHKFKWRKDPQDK

T1 sequence (P08637 17-254): as the sequence (P08637 17-254 F176V limits assumed, form in doubt) above, with V160F counted along it

B1: Tafasitamab (antibody)
chain 1: EVQLVESGGGLVKPGGSLKLSCAASGYTFTSYVMHWVRQAPGKGLEWIGYINPYNDGTKYNEKFQGRVTISSDKSISTAYMELSSLRSEDTAMYYCARGTYYYGTRVFDYWGQGTLVTVSSASTKGPSVFPLAPSSKSTSGGTAALGCLVKDYFPEPVTVSWNSGALTSGVHTFPAVLQSSGLYSLSSVVTVPSSSLGTQTYICNVNHKPSNTKVDKKVEPKSCDKTHTCPPCPAPELLGGPDVFLFPPKPKDTLMISRTPEVTCVVVDVSHEDPEVQFNWYVDGVEVHNAKTKPREEQFNSTFRVVSVLTVVHQDWLNGKEYKCKVSNKALPAPEEKTISKTKGQPREPQVYTLPPSREEMTKNQVSLTCLVKGFYPSDIAVEWESNGQPENNYKTTPPMLDSDGSFFLYSKLTVDKSRWQQGNVFSCSVMHEALHNHYTQKSLSLSPGK
chain 2: DIVMTQSPATLSLSPGERATLSCRSSKSLQNVNGNTYLYWFQQKPGQSPQLLIYRMSNLNSGVPDRFSGSGSGTEFTLTISSLEPEDFAVYYCMQHLEYPITFGAGTKLEIKRTVAAPSVFIFPPSDEQLKSGTASVVCLLNNFYPREAKVQWKVDNALQSGNSQESVTEQDSKDSTYSLSSTLTLSKADYEKHKVYACEVTHQGLSSPVTKSFNRGEC
**Q.** Which results are given for B1?
**A.** binding percentage (average across 3 trials) [1]: ~70%; binding percentage (average across 3 trials) [2]: > 80%
